Substitutions are numbered along the chain they refer to.
Tests used:
[1] = molecular target: T1, human c-Met expressed on cells (human, UniProt P08581 25-1390); assay: cell-based or functional assay
[2] = molecular target: T1, human c-Met expressed on cells; assay: cell-based or functional assay; remark: listed apart in the source
[3] = molecular target: T2, Human c-Met ECD His Tag (Human c-Met ECD-his) recombinant protein (human, UniProt P08581 25-932); assay: ELISA, human c-Met-His coated at 2 ug/ml
T2 construct: extracellular domain; Expressed in 293F cells; also called human c-Met-His; not shown: C-terminal His tag

[4] = molecular target: T3, Human c-Met extracellular region (ECD) and murine Fc region fusion protein (Human c-Met ECD-mFc) (human, UniProt P08581 25-932); assay: blocking ELISA of HGF/c-Met binding: c-Met ECD-mFc coated, antibody titrated, human HGF 20 ng/ml
T3 construct: extracellular domain; Expressed in 293F cells; not shown: murine Fc region
Method: c-Met ECD-mFc (Example 1) was diluted in PBS (Hyclone, Cat #SH30256.01B) with a final concentration of 2 μg/ml, and then a 96-well ELISA plate (Costar, cat#2592) was coated with c-Met ECD-mFc at room temperature overnight. The plate was washed with PBST (PBS+0.05% tween 20, Simga, Cat#P1379) 3 times on a plate washer (Suppler: BioTex; Model: ELX405; S/N: 251504). 300 μl blocking solution PBS+1% BSA (Roche, Cat #738328) was added to the 96-well plate, and the plate was incubated for 60 minutes at 37° C. After the plate was washed with PBST 3 times, 50 μl of antibody diluted by blocking solution was added to the 96-well plate, and the plate was incubated for 90 minutes at 37° C. […] After the plate was washed with PBST 3 times, 100 μl of horseradish peroxidase (ebioscience, #18-4100-51) diluted with blocking solution was added to the 96-well plate and incubated for 30 minutes. After the plate was washed with PBST 3 times, 100 μl substrate (ebioscience, cat#00-4201-56) was added to the plate and incubated for 10 minutes at room temperature. 100 μl stop solution (2N H₂SO₄) was added, and data was read by a […] microplate reader (Supplier: Moleculer Devices; Model: MNR0643; Equip ID: TMRP001). Data analysis was performed by SoftMax Pro v5.

[5] = molecular target: T4, Human c-Met extracellular Sema region and Flag-His tag (Human c-Met Sema-Flis) (human, UniProt P08581 25-515, limits assumed); assay: SPR (Biacore), antibody captured by anti-human IgG, Sema-His 200-0.78 nM as analyte, 1:1 Langmuir
T4 construct: domain: extracellular Sema region; Expressed in 293F cells; also called Sema-His; c-Met antigen Sema-His; not shown: C-terminal Flag-His tag
Method: Anti-mouse IgG (GE Life Sciences catalog # BR-1008-38) or anti-human IgG (GE Life Sciences catalog # BR-1008-39) antibodies were respectively diluted to 30 μg/ml and 50 μg/ml by sodium acetate solution, pH 5.0 (GE Healthcare, Cat#BR-1003-51). An amino coupling kit (GE Life Sciences, Cat#BR100050) was immobilized onto the test channels and control channels on a CMS chip (GE Life Sciences catalog # BR-1000-12), and the coupling level was set at 15000RU. Running buffer PBS (Hyclone, Cat#SH30256.01B)+0.05% P20 (GE Life Sciences, Cat#BR-1000-54) was used to dilute the c-Met antibody to 1.5 μg/ml. Antigen Sema-His was diluted to 200 nM with running buffer, and then diluted at a 1:2 dilution with the same buffer until it reached 0.78 nM. The diluted antibody passed through the test channel for 1 minute at a speed of 30 μl/min, and the antigen passed through the test channels and control channels for 3 minutes at the same speed. After 10 minutes of dissociation, the flow speed was adjusted to 10 μl/min, and regeneration buffer was passed through test channels and control channels for 3 minutes. Data was fitted by BiaEvaluation 4.1 after double deduction, and the fitting model was a 1:1 Langmuir model.

[6] = molecular target: T1, human c-Met expressed on cells; assay: cell-based or functional assay; remark: listed apart in the source

T1 sequence (P08581 25-1390): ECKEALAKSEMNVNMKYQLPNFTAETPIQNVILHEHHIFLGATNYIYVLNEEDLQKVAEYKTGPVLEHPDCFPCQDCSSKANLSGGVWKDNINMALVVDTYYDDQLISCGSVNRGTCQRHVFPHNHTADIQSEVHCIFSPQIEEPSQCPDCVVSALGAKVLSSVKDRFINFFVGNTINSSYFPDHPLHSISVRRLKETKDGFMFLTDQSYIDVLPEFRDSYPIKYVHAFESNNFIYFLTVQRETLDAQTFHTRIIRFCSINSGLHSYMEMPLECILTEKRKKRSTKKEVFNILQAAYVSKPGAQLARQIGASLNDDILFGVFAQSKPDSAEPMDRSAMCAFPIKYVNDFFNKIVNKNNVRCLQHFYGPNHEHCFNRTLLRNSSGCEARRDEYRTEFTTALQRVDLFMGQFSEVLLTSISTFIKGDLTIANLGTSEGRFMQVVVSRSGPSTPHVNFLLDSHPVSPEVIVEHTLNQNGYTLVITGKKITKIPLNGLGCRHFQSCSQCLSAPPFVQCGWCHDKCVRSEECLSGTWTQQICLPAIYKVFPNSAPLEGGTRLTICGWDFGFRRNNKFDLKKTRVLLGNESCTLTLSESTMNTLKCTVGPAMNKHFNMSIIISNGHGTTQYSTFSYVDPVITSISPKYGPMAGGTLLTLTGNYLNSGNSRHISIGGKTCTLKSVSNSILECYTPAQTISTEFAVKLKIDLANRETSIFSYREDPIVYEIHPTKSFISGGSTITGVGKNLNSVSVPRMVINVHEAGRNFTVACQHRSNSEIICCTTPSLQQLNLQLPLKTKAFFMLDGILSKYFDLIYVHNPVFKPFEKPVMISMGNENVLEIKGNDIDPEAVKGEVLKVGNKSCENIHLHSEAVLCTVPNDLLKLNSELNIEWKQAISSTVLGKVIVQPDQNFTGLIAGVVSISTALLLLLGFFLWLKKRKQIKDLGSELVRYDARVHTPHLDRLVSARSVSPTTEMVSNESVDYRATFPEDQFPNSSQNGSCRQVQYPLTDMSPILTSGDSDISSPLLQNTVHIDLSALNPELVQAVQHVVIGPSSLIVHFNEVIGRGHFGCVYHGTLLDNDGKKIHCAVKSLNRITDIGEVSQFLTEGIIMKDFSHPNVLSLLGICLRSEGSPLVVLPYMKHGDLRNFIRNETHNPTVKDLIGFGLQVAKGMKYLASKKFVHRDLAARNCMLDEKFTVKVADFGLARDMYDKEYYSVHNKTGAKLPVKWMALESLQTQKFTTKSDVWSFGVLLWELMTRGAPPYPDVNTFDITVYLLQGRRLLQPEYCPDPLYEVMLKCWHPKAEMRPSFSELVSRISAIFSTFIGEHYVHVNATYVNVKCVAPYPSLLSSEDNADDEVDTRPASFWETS
T2 sequence (P08581 25-932): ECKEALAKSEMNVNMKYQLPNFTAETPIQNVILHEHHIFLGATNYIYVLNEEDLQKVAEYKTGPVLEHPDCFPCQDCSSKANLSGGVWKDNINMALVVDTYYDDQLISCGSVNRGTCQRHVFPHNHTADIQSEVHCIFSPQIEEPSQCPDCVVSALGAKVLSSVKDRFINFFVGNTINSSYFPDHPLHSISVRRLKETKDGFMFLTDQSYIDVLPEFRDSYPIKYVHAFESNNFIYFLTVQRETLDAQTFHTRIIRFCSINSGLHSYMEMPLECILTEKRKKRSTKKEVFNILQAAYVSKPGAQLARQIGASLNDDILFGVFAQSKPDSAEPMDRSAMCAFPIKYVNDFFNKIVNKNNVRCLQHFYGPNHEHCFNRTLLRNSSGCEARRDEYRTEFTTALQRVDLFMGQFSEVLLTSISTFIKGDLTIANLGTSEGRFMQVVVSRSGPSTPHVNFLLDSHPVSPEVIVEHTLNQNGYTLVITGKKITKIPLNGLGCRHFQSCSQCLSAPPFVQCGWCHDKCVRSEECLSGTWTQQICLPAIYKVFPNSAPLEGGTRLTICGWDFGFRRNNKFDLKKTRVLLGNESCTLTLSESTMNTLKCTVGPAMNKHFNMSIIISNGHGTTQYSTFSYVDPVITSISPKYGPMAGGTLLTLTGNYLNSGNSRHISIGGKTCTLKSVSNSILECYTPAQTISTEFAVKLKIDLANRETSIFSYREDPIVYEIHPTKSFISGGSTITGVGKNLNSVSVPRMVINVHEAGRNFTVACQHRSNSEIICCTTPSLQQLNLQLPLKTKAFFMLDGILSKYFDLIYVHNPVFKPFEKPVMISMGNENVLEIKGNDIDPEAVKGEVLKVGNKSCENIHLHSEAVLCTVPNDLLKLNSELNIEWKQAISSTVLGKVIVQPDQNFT
T4 sequence (P08581 25-515 limits assumed): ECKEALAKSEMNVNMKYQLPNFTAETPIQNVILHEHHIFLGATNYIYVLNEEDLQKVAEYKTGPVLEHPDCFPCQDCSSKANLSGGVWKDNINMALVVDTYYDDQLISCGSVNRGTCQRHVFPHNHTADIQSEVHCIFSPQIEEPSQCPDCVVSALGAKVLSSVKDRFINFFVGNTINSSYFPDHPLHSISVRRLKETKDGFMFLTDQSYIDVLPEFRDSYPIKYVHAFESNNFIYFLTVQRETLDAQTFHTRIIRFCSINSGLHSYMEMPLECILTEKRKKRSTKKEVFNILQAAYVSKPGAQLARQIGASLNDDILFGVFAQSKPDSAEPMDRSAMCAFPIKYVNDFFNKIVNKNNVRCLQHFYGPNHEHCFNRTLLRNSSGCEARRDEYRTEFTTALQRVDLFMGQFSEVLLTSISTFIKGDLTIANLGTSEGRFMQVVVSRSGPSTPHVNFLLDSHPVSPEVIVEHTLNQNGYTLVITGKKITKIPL
T3 sequence (P08581 25-932): as the sequence (P08581 25-932) above

B1: Ab-10 humanized antibody (antibody, human IgG2, kappa)
heavy: QVQLVESGGGVVQPGRSLRLSCAASGFSLSNYGVHWVRQAPGKGLEWLAVIWSGGSTNYAAAFVSRLTISKDNSKNTVYLQMNSLRAEDTAVYYCARNHDNPYNYAMDYWGQGTTVTVSSASTKGPSVFPLAPCSRSTSESTAALGCLVKDYFPEPVTVSWNSGALTSGVHTFPAVLQSSGLYSLSSVVTVPSSNFGTQTYTCNVDHKPSNTKVDKTVERKCCVECPPCPAPPVAGPSVFLFPPKPKDTLMISRTPEVTCVVVDVSHEDPEVQFNWYVDGVEVHNAKTKPREEQFNSTFRVVSVLTVVHQDWLNGKEYKCKVSNKGLPAPIEKTISKTKGQPREPQVYTLPPSREEMTKNQVSLTCLVKGFYPSDIAVEWESNGQPENNYKTTPPMLDSDGSFFLYSKLTVDKSRWQQGNVFSCSVMHEALHNHYTQKSLSLSPGK
light: DIVLTQSPDSLAVSLGERATINCRADKSVSTSTYNYLHWYQQKPGQPPKLLIYLASNLASGVPDRFSGSGSGTDFTLTISSLQAEDVAVYYCQHSRDLPPTFGQGTKLEIKRTVAAPSVFIFPPSDEQLKSGTASVVCLLNNFYPREAKVQWKVDNALQSGNSQESVTEQDSKDSTYSLSSTLTLSKADYEKHKVYACEVTHQGLSSPVTKSFNRGEC
notes: human constant regions, kappa light chain
- Inhibition of proliferation of BxPC3 cells (CCK), IC50 [1]: > 1000 nM
- Inhibition of proliferation of Caki-1 cells (CCK), IC50 [1]: > 1000 nM
- Inhibition of proliferation of MKN45 cells (CCK), IC50 [1]: 0.15 nM
- Inhibition of proliferation of NCI-H596 cells (CCK), IC50 [1]: 13.7 nM
- Inhibition of proliferation of PC9 cells (CCK), IC50 [1]: > 1000 nM
- Inhibition of proliferation of SNU5 cells (CCK), IC50 [1]: 0.1 nM
- Activity of inhibition of MKN45 cell proliferation, IC50 [2]: 0.55 nM
- EC50 [3]: 0.39 nM
- IC50 [4]: 1.5 nM
- Kd [5]: 8 nM

B2: Ab-11 humanized antibody (antibody, human IgG2, kappa, V domains shown)
VH: QVQLVESGGGVVQPGRSLRLSCAASGFTLPNYGVHWVRQAPGKGLEWLAVIWSGGSTNYAAAFVSRLTISKDNSKNTVYLQMNSLRAEDTAVYYCARNHDNPYNYAMDYWGQGTTVTVSS
VL: DIVLTQSPDSLAVSLGERATINCRANKSVSTSTYNYLHWYQQKPGQPPKLLIYLASNLASGVPDRFSGSGSGTDFTLTISSLQAEDVAVYYCQHSRDLPPTFGQGTKLEIKR
notes: as for B1
- EC50 [3]: 0.2 nM

B3: Anti-c-Met antibody Ab-10-toxin MC-MMAF conjugate (antibody, human IgG2, kappa, V domains shown)
VH: B2 VH with T28S, P30S
VL: B2 VL with N26D
modifications: MC-MMAF coupled through a propyl mercaptan linker put on the antibody; average y=1.7 per antibody; chain and residues not stated
- Inhibition of proliferation of BxPC3 cells (CCK), IC50 [1]: 6.9 nM
- Inhibition of proliferation of Caki-1 cells (CCK), IC50 [1]: 6.5 nM
- Inhibition of proliferation of MKN45 cells (CCK), IC50 [1]: 0.17 nM
- Inhibition of proliferation of NCI-H596 cells (CCK), IC50 [1]: 104 nM
- Inhibition of proliferation of NCI-H1993 cells (CCK), IC50 [1]: 2.8 nM
- Inhibition of proliferation of PC9 cells (CCK), IC50 [1]: 5.6 nM
- Inhibition of proliferation of SNU5 cells (CCK), IC50 [1]: 0.24 nM
- IC50 (nM) in MKN45 cell (cytotoxicity, ATP assay) [6]: 0.51 nM

B4: Anti-c-Met antibody Ab-10-toxin conjugate (Example 24) (antibody, V domains shown)
VH: B2 VH with T28S, P30S
VL: B2 VL with N26D
modifications: toxin intermediate 12h (maleimidocaproyl derivative of toxin 12g) coupled through a propyl mercaptan linker put on the antibody; average y=1.6 per antibody; chain and residues not stated
- IC50 (nM) in MKN45 cell (cytotoxicity, ATP assay) [6]: 0.59 nM

B5: Ab-9 humanized antibody (antibody, human IgG2, kappa)
heavy: QVTLKESGPVLVKPTETLTLTCTVSGFSLPNYGVHWVRQPPGKALEWLAVIWSGGSTNYAAAFVSRLRISKDTSKSQVVFTMNNMDPVDTATYYCARNHDNPYNYAMDYWGQGTTVTVSSASTKGPSVFPLAPCSRSTSESTAALGCLVKDYFPEPVTVSWNSGALTSGVHTFPAVLQSSGLYSLSSVVTVPSSNFGTQTYTCNVDHKPSNTKVDKTVERKCCVECPPCPAPPVAGPSVFLFPPKPKDTLMISRTPEVTCVVVDVSHEDPEVQFNWYVDGVEVHNAKTKPREEQFNSTFRVVSVLTVVHQDWLNGKEYKCKVSNKGLPAPIEKTISKTKGQPREPQVYTLPPSREEMTKNQVSLTCLVKGFYPSDIAVEWESNGQPENNYKTTPPMLDSDGSFFLYSKLTVDKSRWQQGNVFSCSVMHEALHNHYTQKSLSLSPGK
light: DIVLTQSPASLAVSPGQRATITCRANKSVSTSTYNYLHWYQQKPGQPPKLLIYLASNLASGVPARFSGSGSGTDFTLTINPVEANDTANYYCQHSRDLPPTFGQGTKLEIKRTVAAPSVFIFPPSDEQLKSGTASVVCLLNNFYPREAKVQWKVDNALQSGNSQESVTEQDSKDSTYSLSSTLTLSKADYEKHKVYACEVTHQGLSSPVTKSFNRGEC
notes: as for B1
- Activity of inhibition of MKN45 cell proliferation, IC50 [2]: 0.52 nM
- EC50 [3]: 0.13 nM
- IC50 [4]: 1.42 nM
- Kd [5]: 4 nM
